From paper PMC6291932

Biological target: recombinant zika virus (ZIKV) non-structural 1 (NS1) protein (Zika virus)
Experiment: SEC; Superdex 200 10/300, elution in 50 mM CAPS pH 11.0; supernatants of NS1 inclusion bodies subjected to 2.4 kbar/0.4 kbar at pH 10.0 to 12.5, with or without Arg

recombinant zika virus (ZIKV) non-structural 1 (NS1) protein (natural protein)
stoichiometry N: 2
